# Reference: paper PMC11299580, “Discovery of novel disease-causing mutation in SSBP1 and its correction using adenine base editor to improve mitochondrial function” (Molecular Therapy. Nucleic Acids, 2023)
# T1: SSBP1 wild-type (Homo sapiens, UniProt Q04837 17-148)
# T1 sequence: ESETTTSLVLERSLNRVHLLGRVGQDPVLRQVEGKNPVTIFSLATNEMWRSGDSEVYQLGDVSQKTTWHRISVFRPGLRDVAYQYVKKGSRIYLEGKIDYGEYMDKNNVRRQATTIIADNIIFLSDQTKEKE
# Experiments:
# [1] = target: the molecule itself; assay: cross-linking; glutaraldehyde cross-linking of recombinant SSBP1 proteins, SDS-PAGE with Coomassie staining and SSBP1 immunoblot, band intensities quantified with ImageJ (n = 3)
# SSBP1 wild-type = target: T1, SSBP1 wild-type; assay: EMSA; probe 0.25 uM (far above Kd); legend gives protein 0-2 nM, main text figure 1 uM; units doubtful; 50 mM Tris pH 7.5, 150 mM NaCl, 10% glycerol, 30 min at room temperature; 2% agarose gel in 1x TBE; conditions: protein: recombinant; tags: IMAC tag (probably His); chain copies: 4
Binder,binding result [1],Kd (SSBP1 wild-type) [nM]
"single-stranded DNA-binding protein 1 (SSBP1), wild-type recombinant protein (natural protein, human, UniProt Q04837 17-148, looked up, A human SSBP1 cDNA clone (Origene RC215106) is named only for expression in mammalian cells; also called wild-type SSBP1; source: E. coli BL21 (DE3), purified (HiTrap IMAC, dialysis, Superdex 200 SEC)) ESETTTSLVLERSLNRVHLLGRVGQDPVLRQVEGKNPVTIFSLATNEMWRSGDSEVYQLGDVSQKTTWHRISVFRPGLRDVAYQYVKKGSRIYLEGKIDYGEYMDKNNVRRQATTIIADNIIFLSDQTKEKE",binds,–
GGACTATTTATTCAATATATTTAAGAACTAATTCCAGCTGAGCGCCGG (ssDNA) [EMSA ssDNA probe],–,11.2 ± 0.89
